Measured values as given in paper PMC9700832.

Key:
[1] = target: Bacillus thuringiensis serovar israelensis LexA (B. thuringiensis serovar israelensis); test: SPR; LexA immobilised on a CM5 chip (1200 to 1300 RU); analytes in three-fold dilutions (6-1458 nM), 180 s at 30 uL/min, 25 °C; 20 mM HEPES pH 7.4, 150 mM NaCl, 3 mM EDTA, 0.1 mg/mL BSA, 0.005% P20; apparent KD from steady-state affinity fits, two titrations
[2] = target: Staphylococcus aureus LexA (S. aureus); test: as above
[3] = target: Staphylococcus aureus LexA (S. aureus); test: SPR; […] (6-1458 nM), 180 s at 30 uL/min, 25 °C; 20 mM HEPES pH 7.4, 150 mM NaCl, 3 mM EDTA, 0.1 mg/mL BSA, 0.005% P20; […]

| Substance | Kd [2] | also measured |
| --- | --- | --- |
| Bacillus thuringiensis uncharacterized protein M1QNS5 (natural protein) |  | Kd [1]: 0.365 µM |
| Staphylococcus aureus nucleoid-associated protein HU, purified recombinant (from UniProt Q5HFV0 1-90) (natural protein) | 0.843 µM |  |
| gp7 of bacteriophage GIL01 (natural protein) | 0.298 µM |  |
| tectiviral gp7 homolog from the phage found in Bacillus cereus HuB13-1 (natural protein) | 0.787 µM |  |
| tectiviral gp7 homolog from the phage found in Bacillus cereus VD184 (natural protein) | 0.381 µM |  |
| tectiviral gp7 homolog from the phage found in Bacillus thuringiensis serovar aizawai (natural protein) | 0.302 µM |  |
| tectiviral gp7 homolog of Bacillus anthracis phage AP50 (natural protein) |  | Kd [3]: 0.446 µM |
| tectiviral gp7 homolog of Bacillus mycoides VDm034 phage Lima (natural protein) |  | Kd [3]: 0.331 µM |
